Results reported in article PMC2171422 (The Journal of Cell Biology, 2005).

Target: T1, protein A–Sro7p (yeast (budding yeast), UniProt Q12038 1-1033)
T1 sequence: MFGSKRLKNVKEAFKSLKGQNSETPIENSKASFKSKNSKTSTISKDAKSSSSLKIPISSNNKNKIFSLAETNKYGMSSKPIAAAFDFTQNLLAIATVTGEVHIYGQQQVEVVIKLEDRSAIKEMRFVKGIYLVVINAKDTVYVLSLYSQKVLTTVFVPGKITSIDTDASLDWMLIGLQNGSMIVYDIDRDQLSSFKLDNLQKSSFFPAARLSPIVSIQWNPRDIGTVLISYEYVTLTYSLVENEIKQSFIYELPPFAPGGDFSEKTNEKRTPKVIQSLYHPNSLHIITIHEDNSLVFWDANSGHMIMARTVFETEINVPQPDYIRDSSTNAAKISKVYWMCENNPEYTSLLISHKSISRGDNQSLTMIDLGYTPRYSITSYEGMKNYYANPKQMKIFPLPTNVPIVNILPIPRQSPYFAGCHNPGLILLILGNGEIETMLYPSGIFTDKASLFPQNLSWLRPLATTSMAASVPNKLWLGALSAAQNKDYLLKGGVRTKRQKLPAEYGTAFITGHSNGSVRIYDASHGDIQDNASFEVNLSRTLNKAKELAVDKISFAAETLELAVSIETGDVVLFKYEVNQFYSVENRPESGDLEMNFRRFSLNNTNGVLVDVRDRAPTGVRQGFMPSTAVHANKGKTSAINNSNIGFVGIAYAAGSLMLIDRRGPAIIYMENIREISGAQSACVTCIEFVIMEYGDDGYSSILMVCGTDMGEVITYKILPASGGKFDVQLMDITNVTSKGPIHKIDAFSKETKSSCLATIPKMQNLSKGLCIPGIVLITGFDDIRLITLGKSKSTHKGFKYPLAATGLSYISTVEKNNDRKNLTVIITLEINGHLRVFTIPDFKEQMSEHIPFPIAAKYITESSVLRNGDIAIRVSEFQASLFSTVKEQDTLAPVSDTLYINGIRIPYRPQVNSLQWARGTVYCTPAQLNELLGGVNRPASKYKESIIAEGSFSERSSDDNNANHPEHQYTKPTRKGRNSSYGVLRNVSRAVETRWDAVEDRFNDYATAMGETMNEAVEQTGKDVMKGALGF
Test: pull-down

Kd: 46 ± 6 nM
B1: Exo84p NH2-terminal domain (aa 1–320) GST fusion protein (domain or fragment)
chain: MVEFSLKKARNNWKHVKKSASSPAKQKTPPSPAKPKQKTKKNPYSDLKDPATSYTLPTINARERSRVATSMQRRLSIHNTNYAPPTLDYSMPLPDMPNMIVPNDNVDSSHNNSSFTTENESVSSKGPSNSLNLSTADLSLNDSSYNKVPARSAMRNTVNPSGSNDPFNNSTSLRKMLANPHFNAKDFVHDKLGNASAITIDKFTSNLTDLSIQVQEEVKLNINKSYNEIMTVNNDLNVAMLELKRVRANINDLNEVLDQCTKIAEKRLQLQDQIDQERQGNFNNVESHSNSPALLPPLKAGQNGNLMRRDRSSVLILEKF
